Consider 6 molecules from patent US20240270846A1 (published 2024).

B1: GLS3000 N28G one-arm antibody (H chain CE115HA000) (antibody, human IgG1, kappa, L234A L235A, N297A, name in Kabat numbering)
heavy: QVQLVESGGGVVQPGRSLRLSCAASGFTFSNAWMHWVRQAPGKGLEWVAQIKAKSNNYATYYAESVKGRFTISRDDSKNSLYLQMNSLKTEDTAVYYCRYVHYGAYYGVDAWGQGTTVTVSSASTKGPSVFPLAPSSKSTSGGTAALGCLVKDYFPEPVTVSWNSGALTSGVHTFPAVLQSSGLYSLSSVVTVPSSSLGTQTYICNVNHKPSNTKVDKKVEPKSCDKTHTCPPCPAPEAAGGPSVFLFPPKPKDTLMISRTPEVTCVVVDVSHEDPEVKFNWYVDGVEVHNAKTKPREEQYASTYRVVSVLTVLHQDWLNGKEYKCKVSNKALPAPIEKTISKAKGQPREPQVYTLPPSRCELTKNQVSLSCAVKGFYPSDIAVEWESNGQPENNYKTTPPVLDSDGSFFLVSKLTVDKSRWQQGNVFSCSVMHEALHNHYTQKSLSLSPDYKDDDDK
chain: EPKSSDKTHTCPPCPAPELLGGPSVFLFPPKPKDTLMISRTPEVTCVVVDVSHEDPEVKFNWYVDGVEVHNAKTKPREEQYNSTYRVVSVLTVLHQDWLNGKEYKCKVSNKALPAPIEKTISKAKGQPREPQVCTLPPSRDELTKNQVSLWCLVKGFYPSDIAVEWESNGQPENNYKTTPPVLDSDGSFFLYSKLTVDKSRWQQGNVFSCSVMHEALHNRYTQKSLSLSP
light: DIVMTQSPLSLPVTPGEPASISCRSSQSLVHSGRNTYLHWYQQKPGQAPRLLIYKVSNRFSGVPDRFSGSGSGTDFTLKISRVEAEDVGVYYCGQGTQVPYTFGQGTKLEIKRTVAAPSVFIFPPSDEQLKSGTASVVCLLNNFYPREAKVQWKVDNALQSGNSQESVTEQDSKDSTYSLSSTLTLSKADYEKHKVYACEVTHQGLSSPVTKSFNRGEC
notes: one-arm antibody
B2: GLS3000 N28L one-arm antibody (H chain CE115HA000) (antibody, human IgG1, kappa, L234A L235A, N297A, name in Kabat numbering)
heavy: QVQLVESGGGVVQPGRSLRLSCAASGFTFSNAWMHWVRQAPGKGLEWVAQIKAKSNNYATYYAESVKGRFTISRDDSKNSLYLQMNSLKTEDTAVYYCRYVHYGAYYGVDAWGQGTTVTVSSASTKGPSVFPLAPSSKSTSGGTAALGCLVKDYFPEPVTVSWNSGALTSGVHTFPAVLQSSGLYSLSSVVTVPSSSLGTQTYICNVNHKPSNTKVDKKVEPKSCDKTHTCPPCPAPEAAGGPSVFLFPPKPKDTLMISRTPEVTCVVVDVSHEDPEVKFNWYVDGVEVHNAKTKPREEQYASTYRVVSVLTVLHQDWLNGKEYKCKVSNKALPAPIEKTISKAKGQPREPQVYTLPPSRCELTKNQVSLSCAVKGFYPSDIAVEWESNGQPENNYKTTPPVLDSDGSFFLVSKLTVDKSRWQQGNVFSCSVMHEALHNHYTQKSLSLSPDYKDDDDK
chain: EPKSSDKTHTCPPCPAPELLGGPSVFLFPPKPKDTLMISRTPEVTCVVVDVSHEDPEVKFNWYVDGVEVHNAKTKPREEQYNSTYRVVSVLTVLHQDWLNGKEYKCKVSNKALPAPIEKTISKAKGQPREPQVCTLPPSRDELTKNQVSLWCLVKGFYPSDIAVEWESNGQPENNYKTTPPVLDSDGSFFLYSKLTVDKSRWQQGNVFSCSVMHEALHNRYTQKSLSLSP
light: DIVMTQSPLSLPVTPGEPASISCRSSQSLVHSLRNTYLHWYQQKPGQAPRLLIYKVSNRFSGVPDRFSGSGSGTDFTLKISRVEAEDVGVYYCGQGTQVPYTFGQGTKLEIKRTVAAPSVFIFPPSDEQLKSGTASVVCLLNNFYPREAKVQWKVDNALQSGNSQESVTEQDSKDSTYSLSSTLTLSKADYEKHKVYACEVTHQGLSSPVTKSFNRGEC
notes: one-arm antibody
B3: GLS3000 N28I one-arm antibody (H chain CE115HA000) (antibody, human IgG1, kappa, L234A L235A, N297A, name in Kabat numbering)
heavy: QVQLVESGGGVVQPGRSLRLSCAASGFTFSNAWMHWVRQAPGKGLEWVAQIKAKSNNYATYYAESVKGRFTISRDDSKNSLYLQMNSLKTEDTAVYYCRYVHYGAYYGVDAWGQGTTVTVSSASTKGPSVFPLAPSSKSTSGGTAALGCLVKDYFPEPVTVSWNSGALTSGVHTFPAVLQSSGLYSLSSVVTVPSSSLGTQTYICNVNHKPSNTKVDKKVEPKSCDKTHTCPPCPAPEAAGGPSVFLFPPKPKDTLMISRTPEVTCVVVDVSHEDPEVKFNWYVDGVEVHNAKTKPREEQYASTYRVVSVLTVLHQDWLNGKEYKCKVSNKALPAPIEKTISKAKGQPREPQVYTLPPSRCELTKNQVSLSCAVKGFYPSDIAVEWESNGQPENNYKTTPPVLDSDGSFFLVSKLTVDKSRWQQGNVFSCSVMHEALHNHYTQKSLSLSPDYKDDDDK
chain: EPKSSDKTHTCPPCPAPELLGGPSVFLFPPKPKDTLMISRTPEVTCVVVDVSHEDPEVKFNWYVDGVEVHNAKTKPREEQYNSTYRVVSVLTVLHQDWLNGKEYKCKVSNKALPAPIEKTISKAKGQPREPQVCTLPPSRDELTKNQVSLWCLVKGFYPSDIAVEWESNGQPENNYKTTPPVLDSDGSFFLYSKLTVDKSRWQQGNVFSCSVMHEALHNRYTQKSLSLSP
light: DIVMTQSPLSLPVTPGEPASISCRSSQSLVHSIRNTYLHWYQQKPGQAPRLLIYKVSNRFSGVPDRFSGSGSGTDFTLKISRVEAEDVGVYYCGQGTQVPYTFGQGTKLEIKRTVAAPSVFIFPPSDEQLKSGTASVVCLLNNFYPREAKVQWKVDNALQSGNSQESVTEQDSKDSTYSLSSTLTLSKADYEKHKVYACEVTHQGLSSPVTKSFNRGEC
notes: one-arm antibody
B4: GLS3000 N28H one-arm antibody (H chain CE115HA000) (antibody, human IgG1, kappa, L234A L235A, N297A, name in Kabat numbering)
heavy: QVQLVESGGGVVQPGRSLRLSCAASGFTFSNAWMHWVRQAPGKGLEWVAQIKAKSNNYATYYAESVKGRFTISRDDSKNSLYLQMNSLKTEDTAVYYCRYVHYGAYYGVDAWGQGTTVTVSSASTKGPSVFPLAPSSKSTSGGTAALGCLVKDYFPEPVTVSWNSGALTSGVHTFPAVLQSSGLYSLSSVVTVPSSSLGTQTYICNVNHKPSNTKVDKKVEPKSCDKTHTCPPCPAPEAAGGPSVFLFPPKPKDTLMISRTPEVTCVVVDVSHEDPEVKFNWYVDGVEVHNAKTKPREEQYASTYRVVSVLTVLHQDWLNGKEYKCKVSNKALPAPIEKTISKAKGQPREPQVYTLPPSRCELTKNQVSLSCAVKGFYPSDIAVEWESNGQPENNYKTTPPVLDSDGSFFLVSKLTVDKSRWQQGNVFSCSVMHEALHNHYTQKSLSLSPDYKDDDDK
chain: EPKSSDKTHTCPPCPAPELLGGPSVFLFPPKPKDTLMISRTPEVTCVVVDVSHEDPEVKFNWYVDGVEVHNAKTKPREEQYNSTYRVVSVLTVLHQDWLNGKEYKCKVSNKALPAPIEKTISKAKGQPREPQVCTLPPSRDELTKNQVSLWCLVKGFYPSDIAVEWESNGQPENNYKTTPPVLDSDGSFFLYSKLTVDKSRWQQGNVFSCSVMHEALHNRYTQKSLSLSP
light: DIVMTQSPLSLPVTPGEPASISCRSSQSLVHSHRNTYLHWYQQKPGQAPRLLIYKVSNRFSGVPDRFSGSGSGTDFTLKISRVEAEDVGVYYCGQGTQVPYTFGQGTKLEIKRTVAAPSVFIFPPSDEQLKSGTASVVCLLNNFYPREAKVQWKVDNALQSGNSQESVTEQDSKDSTYSLSSTLTLSKADYEKHKVYACEVTHQGLSSPVTKSFNRGEC
notes: one-arm antibody
B5: GLS3000 N28M one-arm antibody (H chain CE115HA000) (antibody, human IgG1, kappa, L234A L235A, N297A, name in Kabat numbering)
heavy: QVQLVESGGGVVQPGRSLRLSCAASGFTFSNAWMHWVRQAPGKGLEWVAQIKAKSNNYATYYAESVKGRFTISRDDSKNSLYLQMNSLKTEDTAVYYCRYVHYGAYYGVDAWGQGTTVTVSSASTKGPSVFPLAPSSKSTSGGTAALGCLVKDYFPEPVTVSWNSGALTSGVHTFPAVLQSSGLYSLSSVVTVPSSSLGTQTYICNVNHKPSNTKVDKKVEPKSCDKTHTCPPCPAPEAAGGPSVFLFPPKPKDTLMISRTPEVTCVVVDVSHEDPEVKFNWYVDGVEVHNAKTKPREEQYASTYRVVSVLTVLHQDWLNGKEYKCKVSNKALPAPIEKTISKAKGQPREPQVYTLPPSRCELTKNQVSLSCAVKGFYPSDIAVEWESNGQPENNYKTTPPVLDSDGSFFLVSKLTVDKSRWQQGNVFSCSVMHEALHNHYTQKSLSLSPDYKDDDDK
chain: EPKSSDKTHTCPPCPAPELLGGPSVFLFPPKPKDTLMISRTPEVTCVVVDVSHEDPEVKFNWYVDGVEVHNAKTKPREEQYNSTYRVVSVLTVLHQDWLNGKEYKCKVSNKALPAPIEKTISKAKGQPREPQVCTLPPSRDELTKNQVSLWCLVKGFYPSDIAVEWESNGQPENNYKTTPPVLDSDGSFFLYSKLTVDKSRWQQGNVFSCSVMHEALHNRYTQKSLSLSP
light: DIVMTQSPLSLPVTPGEPASISCRSSQSLVHSMRNTYLHWYQQKPGQAPRLLIYKVSNRFSGVPDRFSGSGSGTDFTLKISRVEAEDVGVYYCGQGTQVPYTFGQGTKLEIKRTVAAPSVFIFPPSDEQLKSGTASVVCLLNNFYPREAKVQWKVDNALQSGNSQESVTEQDSKDSTYSLSSTLTLSKADYEKHKVYACEVTHQGLSSPVTKSFNRGEC
notes: one-arm antibody
B6: GLS3000 N28K one-arm antibody (H chain CE115HA000) (antibody, human IgG1, kappa, L234A L235A, N297A, name in Kabat numbering)
heavy: QVQLVESGGGVVQPGRSLRLSCAASGFTFSNAWMHWVRQAPGKGLEWVAQIKAKSNNYATYYAESVKGRFTISRDDSKNSLYLQMNSLKTEDTAVYYCRYVHYGAYYGVDAWGQGTTVTVSSASTKGPSVFPLAPSSKSTSGGTAALGCLVKDYFPEPVTVSWNSGALTSGVHTFPAVLQSSGLYSLSSVVTVPSSSLGTQTYICNVNHKPSNTKVDKKVEPKSCDKTHTCPPCPAPEAAGGPSVFLFPPKPKDTLMISRTPEVTCVVVDVSHEDPEVKFNWYVDGVEVHNAKTKPREEQYASTYRVVSVLTVLHQDWLNGKEYKCKVSNKALPAPIEKTISKAKGQPREPQVYTLPPSRCELTKNQVSLSCAVKGFYPSDIAVEWESNGQPENNYKTTPPVLDSDGSFFLVSKLTVDKSRWQQGNVFSCSVMHEALHNHYTQKSLSLSPDYKDDDDK
chain: EPKSSDKTHTCPPCPAPELLGGPSVFLFPPKPKDTLMISRTPEVTCVVVDVSHEDPEVKFNWYVDGVEVHNAKTKPREEQYNSTYRVVSVLTVLHQDWLNGKEYKCKVSNKALPAPIEKTISKAKGQPREPQVCTLPPSRDELTKNQVSLWCLVKGFYPSDIAVEWESNGQPENNYKTTPPVLDSDGSFFLYSKLTVDKSRWQQGNVFSCSVMHEALHNRYTQKSLSLSP
light: DIVMTQSPLSLPVTPGEPASISCRSSQSLVHSKRNTYLHWYQQKPGQAPRLLIYKVSNRFSGVPDRFSGSGSGTDFTLKISRVEAEDVGVYYCGQGTQVPYTFGQGTKLEIKRTVAAPSVFIFPPSDEQLKSGTASVVCLLNNFYPREAKVQWKVDNALQSGNSQESVTEQDSKDSTYSLSSTLTLSKADYEKHKVYACEVTHQGLSSPVTKSFNRGEC
notes: one-arm antibody

This test deals with T1, CD3 epsilon homodimer protein (UniProt P07766 23-126).
T1 construct: also called CD3 (CD3 epsilon)
T1 sequence (P07766 23-126): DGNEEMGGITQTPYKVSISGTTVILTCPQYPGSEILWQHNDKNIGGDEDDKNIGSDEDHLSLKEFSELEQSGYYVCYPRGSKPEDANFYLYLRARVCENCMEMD
In words: SPR, CD3e homodimer on chip.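 Further: surface plasmon resonance at 25 degrees C, antibodies flowed as analyte over CD3 epsilon homodimer amine-coupled to a CM4 chip, running buffer HBS-EP+.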 For orientation: Surface plasmon resonance follows binding to a sensor surface in real time, without labels.
Take B1: the “ratio of amounts bound (altered form / unaltered GLS3000 antibody)” value amounted to 0.46.
Take B2: the “ratio of amounts bound (altered form / unaltered GLS3000 antibody)” value was 0.39.
To B3 belongs 0.44; to B4, 0.42; to B5, 0.39.
The figure for B6 is 0.44.
